# In the nanobody polyreactivity screen of Harvey et al. (2022):
# Test: yeast display, Sf9 membrane polyspecificity reagent, FACS + sequencing; frameworks hold sequencing errors
# Method in brief: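 Synthetic nanobody libraries on Saccharomyces cerevisiae BJ5465 were galactose-induced for 36–48 hours, stained 1 hour at 4 °C with 10% biotinylated, detergent-solubilized Sf9 membrane reagent and enriched on streptavidin microbeads. FACS then separated cells into low and high (top ~1%) gates by anti-HA (expression) and streptavidin (reagent binding) fluorescence. Genes were colony-PCR amplified, MiSeq 2 × 250 sequenced and CDR-length filtered. A clone's polyreactivity label is that of its gate of origin.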
row,Sequence,polyreactivity (PSR sort gate)
1,QVQLVESGGGLVQAGGSLRLSCAASGFIFYYNAMGWYRQAPGKERELVATITSGGSTNYADSVKGRFTISRDNAKNTVYLQMNSLKPEDTAVYYCAAGHSWVYGYDYWGQGTQVTVSS,low polyreactivity
2,QVQLVESGGGLVQAGGSLRLSCAASGFIFYYNARGWYRQAPGKERELVAGISWDGSTYYADSVKGRFTISRDNAKNTVYLQMNSLKPEDTAVYYCAAALLDDYFDLFIFGYWGQGTQVTVSS,low polyreactivity
3,QVQLVESGGGLVQAGGSLRLSCAASGFIFYYNTMGWYRQAPGKERELVASITWSGDTTYYADSVKGRFSISRDNAKNTVYLQMNSLIPEDTAVYYCAAVHYYPYRRYDYWGQGTQVTVSS,low polyreactivity
4,QVQLVESGGGLVQAGGSLRLSCAASGFIFYYYAMGWYIQAPGKERELVAAIDWDGDRTYYADSVKGRFTISRDNAKNTVYLQMNSLKPEDTAVYYCAAEWPVNFDYWGQGTQVTVSS,low polyreactivity
5,QVQLVESGGGLVQAGGSLRLSCAASGFIFYYYAMGWYRPAPGKERELVAAISRTGGRTYYADSVKWRFTISRDNAKKTVYLQMNSLKPEDTAVYYCAADQGNRFDYWGQGTQVTVSS,high polyreactivity
6,QVQLVESGGGLVQAGGSLRLSCAASGFIFYYYAMGWYRQAPGKERELVAAINRRGGSTYYADSVKGRFTISRDNAKNTVYLQMNSLKPEDTAVYYCAATYDGTFDYWGQGTQVTVSS,high polyreactivity
7,QVQLVESGGGLVQAGGSLRLSCAASGFIFYYYAMGWYRQAPGKERELVASISSSGGRTYYADSVKGRFTISRDNAKNTVYLQMNSLKPEDTAVYYCAARGPYGYDLLYYWGQGTQVTVSS,high polyreactivity
8,QVQLVESGGGLVQAGGSLRLSCAASGFIIARNAMGWYRQAPGKERELVAAISASGGRTYYADSVKGRFTISRDNAKNTVYLQMNSLKPEDTAVYYCAARRDGRSGSYNYWGQGTQVTVSS,high polyreactivity
9,QVQLVESGGGLVQAGGSLRLSCAASGFIIDVYAMGWYRHAPGKERELVAAISRSGGSTYYADSVKGRFTISRDNAKNSVYLQMNSLKPEDTAVYYCNAPGVTRAYLVGYDYWGQGSQVTVSS,low polyreactivity
10,QVQLVESGGGLVQAGGSLRLSCAASGFIIGSNGMGWYRQAPGKERELVAAISKNGGTTYYADSVKGRVTISRDNANNTVYLLMNSLKPADTAVYYCAAYKAVPNYYYWGQGTQVTVSS,high polyreactivity
11,QVQLVESGGGLVQAGGSLRLSCAASGFIIIGYFMGWYRQAPGKERELVAAITSSGGSTYYADSVKGRFTISRDNAKNTVYLQMNSLKPEDTAVYYCAARLYNSIYWGYYSWGPGTQVTVSS,low polyreactivity
12,QVQLVESGGGLVQAGGSLRLSCAASGFIIKFYAMGWYRQAPGKERELVATITISSGTTYYADSVKGRFTISRDTAKNTVYLQMNSLKPEDTAVYYCAASTLPAWPYDGPAGPRYDYWGQGTQVTVSS,low polyreactivity
13,QVQLVESGGGLVQAGGSLRLSCAASGFIIQGNAMGRYRQAPGKERELVAAISSSVSTYYADSVKGRFTISRDNAKNTVYLQMNSLKPEDTAVYYCNAGFPLSLWLGDYWGQGTQVTVSS,low polyreactivity
14,QVQLVESGGGLVQAGGSLRLSCAASGFIIQYYAMGWYRQAPGKERELVAVISLSGGRTSYADSVKGRFTISRDNAKNTVYLQMNSLKPEDTAVYYCARRVWSASNDYWGQGTQVTVSS,high polyreactivity
15,QVQLVESGGGLVQAGGSLRLSCAASGFIIYFNAMGWYRQAPGKERELVAAISASGGRTYYADSVKGRFTISRDNAKNTVYLQMNSLKPEDTAVYYCAADIRGYDYWGQGTQVTVSS,high polyreactivity
16,QVQLVESGGGLVQAGGSLRLSCAASGFIIYRYAMGWYRQAPGKEREVVATISSRGGSTYYADSVKGRFTISRDNAKNTVYLQMNSLKPEDTAVYYCNVRTRVKTTQSYDRNNYYWGQGTQVTVSS,high polyreactivity
17,QVQLVESGGGLVQAGGSLRLSCAASGFIIYSYAMGWYRQAPGKERELVAVISSRGGTTYYADSVKGRFTISRDNAKNTVYLQMNSLKPEDTAVYYCARDDYGTLVKLYVRCFNYWGQGTQVTVSS,low polyreactivity
18,QVQLVESGGGLVQAGGSLRLSCAASGFILAGYAMGWSRQAPGKERELVAAINSRGTRTYYADSVKGRFTISRDNAKNTVYLQMNSLKPEDTAVYYCAVHVWGTYGSWEYYYWGQGTQVTVSS,high polyreactivity
19,QVQLVESGGGLVQAGGSLRLSCAASGFILAGYAMGWYRQAPGKERELVAAINSRGTRTYYADSVKGRFTISRDNAKNTVYLQMNSLKPEDTAVYYCAVHVWGTYGSWEYYYWGQGTQVTVSS,high polyreactivity
20,QVQLVESGGGLVQAGGSLRLSCAASGFILDNYAMGWYRQAPGKERELVAAISGSGGSTYYADSVKGRFTISRDNAKNTVYLQMNSLKPEDTAVYYCAAYSIHYGYDAYDYWGQGTQVTVSS,high polyreactivity
21,QVQLVESGGGLVQAGGSLRLSCAASGFILDWYTMGWYRHAPGKEREFVAAITSRGGDTYYADSVKGRFTISRDNAKNTVYLQMNSLTPEDTAVYYCNKGFKLWPRYGYDYWGQGTQVTVSS,low polyreactivity

row,Sequence,polyreactivity (PSR sort gate)
1,QVQLVESGGGLVQAGGSLRLSCAASGFILDYNTMGWYRQAPGKERELVAAISSSGDTTYYADSVKGRFTISRDNAKNTVYLQMNSLKPEDTAVYYCDREYGDGYEYWGQGTQVTVSS,low polyreactivity
2,QVQLVESGGGLVQAGGSLRLSCAASGFILGANAMGWYRQAPGKERELVAAIRSSDGTTYYADSVKGRFTISRDNAKNTVYLQMNSLKPEDTAVYYCAADWRLLYEYWGQGTQVTVSS,high polyreactivity
3,QVQLVESGGGLVQAGGSLRLSCAASGFILKPNAMGWYRQAPGKERELVAAISWSSGSTYYADSVKGRFTISRDNAKNTVYLQMNRLKPEDTAVYYCAADYFVYPDDWYDYWGQGTQVTVSS,low polyreactivity
4,QVQLVESGGGLVQAGGSLRLSCAASGFILKYYAMGWYRQAPGKERELVAAISSSGGRTYYADSVKGRFTISRDNAKNTVYLQMNSLKPEDTAVYYCAARVIASRGRYGYWGQGTQVTVSS,high polyreactivity
5,QVQLVESGGGLVQAGGSLRLSCAASGFILLYYAMGWYRQAPVKERELVATITWSDGSTYYADSVKGRFTISRDNAKNTVYLQMNSLKPEDTAVYYCASPYKRYFYKGGDYWGQGTQVTVSS,low polyreactivity
6,QVQLVESGGGLVQAGGSLRLSCAASGFILNWYAMGWYRQAPGKERELVAAISWTTSDTYYADSVKGRFTISRDNAKNTVYLQMNSLKPEDTAVYYCNAKFYAYYVTFVLHYDYWGQGTQVTVSS,low polyreactivity
7,QVQLVESGGGLVQAGGSLRLSCAASGFILPIYAMGWYRQAPGKEREFVAAITWTGGSTYYADSVKGRFTISRDTAKNNVFLQIHSLKPEDTAVYYCAKRYYLRGYGRYYYWGQGTQVTVSS,high polyreactivity
8,QVQLVESGGGLVQAGGSLRLSCAASGFILRYNAMGWYRQAPGKERELVAAISYTGDRTYYADSVKGRFTISRDNAKNTVYLQMNSLKPEDTAVYYCNAVTYGSYYYWGQGTQVTVSS,high polyreactivity
9,QVQLVESGGGLVQAGGSLRLSCAASGFILSRYAMGWYRPAPGTERELVAAITSSGGSTYYADSVKGRFTISRDNAKNTVYLQMNSLKPEDTAVYYCAADRGRYSYNFWGQGTQVTVSS,high polyreactivity
10,QVQLVESGGGLVQAGGSLRLSCAASGFILTSNAMGWYRQAPGKERELVAAITRNGARTYYADSVKGRFTISRDNAKNTVYLQMNSLKPEDTAVYYCAAETVSYWWWGQDIPYYYWGQGTQVTVSS,high polyreactivity
11,QVQLVESGGGLVQAGGSLRLSCAASGFILTSYAMGWYRPEPGKERELVAAISSRGGRTYYADSVKGRFTISRDNAKNTVYLQMNSLKPEDTAVYYCNAVVYVVGDFDYWGQGTQVTVSS,high polyreactivity
12,QVQLVESGGGLVQAGGSLRLSCAASGFILTSYAMGWYRQAPGKERELVAAISSRGGRTYYADSVKGRFTISRDNAKNTVYLQMNSLKPEDTAVYFCNAVVYVVGDFDYWGQGTQVTVSS,high polyreactivity
13,QVQLVESGGGLVQAGGSLRLSCAASGFILVFYAMGWYRQAPGKERELVAAIDWSGTITYYADSVKGRFTISRDNAKKTVYLQINSLKPEDTAVYYCAADGEPFYDFDYWGQRTQVTVSS,high polyreactivity
14,QVQLVESGGGLVQAGGSLRLSCAASGFILYQNALGWYRQAPGKERELVAAITESDGITYYADSVKGRFTISRDNAKNTVYLQMNSLKPEDTAVYDCNTGFSYTYDYWGQGTQVTVSS,low polyreactivity
15,QVQLVESGGGLVQAGGSLRLSCAASGFILYRYAMGWDRQAPGKDRELVAAITRRGGSTYYADSVKGRFTISRDNAKNTVYLQMNSLKPEDTAVYYCNADIGVYGTSDLDYWGQGTQVTLSS,high polyreactivity
16,QVQLVESGGGLVQAGGSLRLSCAASGFISDDYAMGWYRQAPGKERELVAAISDSGVDTYYADSVKGRFTISRDNAKNTVYLLMNSLKPEDTAVYYCATLTYASNRYGYWGQGTHVTVSS,low polyreactivity
17,QVQLVESGGGLVQAGGSLRLSCAASGFISDWYAMGWYRQAPGTERELVATIDWIGGSTYADSVKGRFTISRDNAKNTVYLQMNSLKPEDTAVYYCAADSYFIAWYGAHYAYDYWGQGTQVTVSS,low polyreactivity
18,QVQLVESGGGLVQAGGSLRLSCAASGFISFDKAMGWYRQAPGKERELVAAIRSGGSTNYADSVKGLFTISRDNAKNTVYLQMNSLKPEDTAVYYCATDGSLRARSTSGWEYTNGDYWGQGTQVTVSS,low polyreactivity
19,QVQLVESGGGLVQAGGSLRLSCAASGFISPGYAMGWYRQAPGKERELVAAISVNGGDTYYADSVKGRFTISRDNAKNTVYLQMYSLKPEDTAVYYCAAERGVDDSARYGDYDYWGQGTQVTVSS,low polyreactivity
20,QVQLVESGGGLVQAGGSLRLSCAASGFISYYYAMGWYRQAPGKEREFVAAITSSGGSTRYADSVKGRFSISRDNATNTVYLQMNSLKPEDTAVYYCAAGNPYFWPYDYWGQGTQVTVSS,low polyreactivity
